First the molecules themselves.
B1: M0 (dsDNA)
DNA 1: AGAGCCCGCCACAGACATATACGCTTTTGCCTATGTTTC
DNA 2: GAAACATAGGCAAAAGCGTATATGTCTGTGGCGGGCTCT
B2: M1 (dsDNA)
DNA 1: AGAGCCCGCCACAGACAGATACGCTTTTGCCTATGTTTC
DNA 2: GAAACATAGGCAAAAGCGTATCTGTCTGTGGCGGGCTCT
B3: M4 (dsDNA)
DNA 1: AGAGCCCGCCACAGACATATGCGCTTTTGCCTATGTTTC
DNA 2: GAAACATAGGCAAAAGCGCATATGTCTGTGGCGGGCTCT
B4: M10 (dsDNA)
DNA 1: AGAGCCCGCCACAGACATATATGCTTTTGCCTATGTTTC
DNA 2: GAAACATAGGCAAAAGCATATATGTCTGTGGCGGGCTCT
B5: M5 (dsDNA)
DNA 1: AGAGCCCGCCACAGACATATACGCGTTTGCCTATGTTTC
DNA 2: GAAACATAGGCAAACGCGTATATGTCTGTGGCGGGCTCT
B6: M9 (dsDNA)
DNA 1: AGAGCCCGCCACAGACATATACTCTTTTGCCTATGTTTC
DNA 2: GAAACATAGGCAAAAGAGTATATGTCTGTGGCGGGCTCT
B7: OL4 (dsDNA)
DNA 1: ACGCTTTTGCCTATGTTTCGTTCAACAAGGAGGCCGGCAC
DNA 2: GTGCCGGCCTCCTTGTTGAACGAAACATAGGCAAAAGCGT
B8: F4 (dsDNA)
DNA 1: TGGCCGCGCCGGCCGACTCACGGCTCACCGCACGCTCCGGCCATAAGCCGGATACTACCC
DNA 2: GGGTAGTATCCGGCTTATGGCCGGAGCGTGCGGTGAGCCGTGAGTCGGCCGGCGCGGCCA
B9: OL1 (dsDNA)
DNA 1: CACCCCTTATGTATATACGTTTTTATCGCGATTCTCTTGC
DNA 2: GCAAGAGAATCGCGATAAAAACGTATATACATAAGGGGTG
B10: F3 (dsDNA)
DNA 1: CCATAAGCCGGATACTACCCGGATACGACTCGGCCGCGGCCACCCCTTATGTATATACGT
DNA 2: ACGTATATACATAAGGGGTGGCCGCGGCCGAGTCGTATCCGGGTAGTATCCGGCTTATGG
B11: F5 (dsDNA)
DNA 1: TCCGCGAGGGACCAGTCACGCGACTCGCGAAGTGCGCGAATGGCCGCGCCGGCCGACTCA
DNA 2: TGAGTCGGCCGGCGCGGCCATTCGCGCACTTCGCGAGTCGCGTGACTGGTCCCTCGCGGA
B12: OL2 (dsDNA)
DNA 1: TTTTATCGCGATTCTCTTGCAGAGCCCGCCACAGACATAT
DNA 2: ATATGTCTGTGGCGGGCTCTGCAAGAGAATCGCGATAAAA
B13: OL5 (dsDNA)
DNA 1: ATTCTCTTGCAGAGCCCGCCACAGACATATACGCTTTTGC
DNA 2: GCAAAAGCGTATATGTCTGTGGCGGGCTCTGCAAGAGAAT
B14: F2 (dsDNA)
DNA 1: CACCCCTTATGTATATACGTTTTTATCGCGATTCTCTTGCAGAGCCCGCCACAGACATAT
DNA 2: ATATGTCTGTGGCGGGCTCTGCAAGAGAATCGCGATAAAAACGTATATACATAAGGGGTG
B15: F1 (dsDNA)
DNA 1: AGAGCCCGCCACAGACATATACGCTTTTGCCTATGTTTCGTTCAACAAGGAGGCCGGCAC
DNA 2: GTGCCGGCCTCCTTGTTGAACGAAACATAGGCAAAAGCGTATATGTCTGTGGCGGGCTCT
B16: F6 (dsDNA)
DNA 1: GCTCAGGCCCATGGTGCTTACGCCAGTGGCGGCCGCCAGGTCCGCGAGGGACCAGTCACG
DNA 2: CGTGACTGGTCCCTCGCGGACCTGGCGGCCGCCACTGGCGTAAGCACCATGGGCCTGAGC
B17: OL3 (dsDNA)
DNA 1: AGAGCCCGCCACAGACATATACGCTTTTGCCTATGTTTCG
DNA 2: CGAAACATAGGCAAAAGCGTATATGTCTGTGGCGGGCTCT

In the first data set the target is T1, Rv0023 (XRE family transcription regulator) (Mycobacterium tuberculosis, UniProt P9WMI3 1-256).
T1 sequence: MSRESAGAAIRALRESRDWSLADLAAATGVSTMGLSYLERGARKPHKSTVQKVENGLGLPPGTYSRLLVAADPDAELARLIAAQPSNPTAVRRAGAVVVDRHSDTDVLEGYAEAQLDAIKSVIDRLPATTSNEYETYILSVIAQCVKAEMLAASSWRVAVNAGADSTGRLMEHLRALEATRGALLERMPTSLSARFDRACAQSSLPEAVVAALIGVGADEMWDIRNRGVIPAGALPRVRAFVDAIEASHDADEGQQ
The data set can be described thus: EMSA; 8 pmol protein. The following applies: protein: recombinant; tags: His (implied by Ni-NTA purification; pET23a, also printed pET21b); chain copies: 2; label: 32P.
As for B1, the binding result is on record as “binds”.
On to B2, for which the binding result is “binds”.
Regarding B3, the binding result is “binds”.
Same read-out and setting: as for B4, the entry is “binds”.
As for B5, the binding result is “binds”.
As for B6, the binding result was “binds”.

Still in this data set, the particulars now being: protein: recombinant; tags: His (implied by Ni-NTA purification; pET23a, also printed pET21b); chain copies: 2; label: 32P; blunt.
As to B7, the binding result is “no binding”.
Consider B8, for which the binding result is “no binding”.
In the case of B9, the binding result is on record as “binds”.
With B10, the binding result is “no binding”.
On the same count and under the same terms, in the case of B11 it was “no binding”; in that of B12, “no binding”.
For B13, the binding result is given as “no binding”.
Regarding B14, the binding result is listed as “binds”.
With B15, the binding result is recorded as “binds”.
Regarding B16, the binding result is “no binding”.
With B17, the binding result is “binds”.

The values are drawn from publication PMC7020754.
